Reference: paper PMC7910558, “The HIF-1α antisense long non-coding RNA drives a positive feedback loop of HIF-1α mediated transactivation and glycolysis”

Experiments:
PKM2 (EMSA) = PKM2 (EMSA) (UniProt P14618 1-531); experiment: EMSA; Pull-down: RNA folded in 10 mM Tris pH 7, 0.1 M KCl, 10 mM MgCl2, then 5 µg RNA with 5 mg lysate in Pierce IP lysis buffer, 1 h, room temperature; EMSA: LightShift chemiluminescent RNA EMSA kit, buffer not given; details: protein: recombinant; label: biotin-16-UTP; two predicted hairpins (nt 4-19, nt 30-57)
PKM2 (EMSA), sequence (P14618 whole entry): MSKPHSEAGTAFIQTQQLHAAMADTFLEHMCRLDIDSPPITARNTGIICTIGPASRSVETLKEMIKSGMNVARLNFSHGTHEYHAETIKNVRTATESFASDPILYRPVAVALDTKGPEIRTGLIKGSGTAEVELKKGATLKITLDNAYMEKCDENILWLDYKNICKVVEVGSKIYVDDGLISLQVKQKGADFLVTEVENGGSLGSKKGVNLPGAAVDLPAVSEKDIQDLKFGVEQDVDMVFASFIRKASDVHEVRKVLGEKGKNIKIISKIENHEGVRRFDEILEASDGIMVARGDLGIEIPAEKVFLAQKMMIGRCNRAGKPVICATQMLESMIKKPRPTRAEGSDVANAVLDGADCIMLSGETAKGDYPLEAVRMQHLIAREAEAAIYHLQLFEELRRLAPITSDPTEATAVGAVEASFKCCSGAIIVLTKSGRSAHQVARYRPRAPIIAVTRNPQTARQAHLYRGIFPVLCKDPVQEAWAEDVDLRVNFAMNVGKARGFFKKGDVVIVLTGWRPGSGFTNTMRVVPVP

PHD3 (EMSA) = PHD3 (EMSA) (UniProt Q9H6Z9 1-239); experiment: as above; details: protein: recombinant, label: biotin-16-UTP
PHD3 (EMSA), sequence (Q9H6Z9 whole entry): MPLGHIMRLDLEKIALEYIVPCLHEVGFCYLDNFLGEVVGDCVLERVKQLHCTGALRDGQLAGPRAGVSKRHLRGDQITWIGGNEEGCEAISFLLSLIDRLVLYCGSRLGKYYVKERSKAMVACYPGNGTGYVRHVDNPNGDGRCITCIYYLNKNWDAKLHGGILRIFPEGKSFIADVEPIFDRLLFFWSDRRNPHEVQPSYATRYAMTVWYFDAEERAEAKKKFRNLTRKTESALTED

B1: HIFAL nt 1-60 (structured_RNA)
RNA: UCAUGUAGCGCCAGCCACACCAGGAACAGAAGGGUGCCGGGUACCUUCCGCAUGCUUGGU
B1: binds (PKM2 (EMSA)).

UGCAUGUCUAAACAUUUUUCACCUAUUAUUUAAUC (ssRNA) [HIFAL 501-560 ΔhC (mC)]: no binding (PHD3 (EMSA)).

B2: HIFAL nt 501-560 (structured_RNA)
RNA: UGCAUGGUGCUUACUAAUAACACAGUGGUAUUCUAAACAUUUUUCACCUAUUAUUUAAUC
B2: binds (PHD3 (EMSA); predicted hairpin (nt 506-532)).
